The source of these data is paper PMC2211816.

The series deals with GST-KLF2 (UniProt Q60843 1-354). The series can be described thus: EMSA. Background: In EMSA bound probe runs differently from free probe, usually more slowly.
Chain of GST-KLF2 (Q60843 whole entry): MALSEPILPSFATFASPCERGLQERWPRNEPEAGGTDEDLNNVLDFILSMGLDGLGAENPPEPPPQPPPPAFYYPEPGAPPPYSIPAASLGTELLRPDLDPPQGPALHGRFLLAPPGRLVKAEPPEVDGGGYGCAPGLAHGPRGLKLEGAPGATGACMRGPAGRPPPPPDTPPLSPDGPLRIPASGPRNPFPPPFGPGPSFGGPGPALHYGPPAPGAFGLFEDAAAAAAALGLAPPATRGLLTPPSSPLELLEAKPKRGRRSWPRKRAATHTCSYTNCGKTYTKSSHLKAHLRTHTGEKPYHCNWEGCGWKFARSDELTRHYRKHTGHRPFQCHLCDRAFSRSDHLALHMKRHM

B1: eNOS promoter KLF site (-644 to -652) probe (dsDNA)
DNA 1: GTCATGGGGGTGTGGGGGTTCCAGGAAAT
DNA 2: ATTTCCTGGAACCCCCACACCCCCATGAC
Regarding B1, the binding result is on record as “binds”.
